{
  "source": "patent US20220162334A1",
  "about": "(SHANGHAI HENLIUS BIOTECH, published 2022)",
  "binders": {"B1": {"name": "N4-tmtIgG1 (antibody)", "heavy": "not shown", "light": "QAVLTQPSSVSGAPGQRVTISCTGTSSNIGAGYDIHWYQQLPGTAPKLLMYRFTRRPSGVPDRFSGSKSGTSASLTITGLQVEDEADYYCQSYDSGLRGWVFGGGTKLAVLGQPKAAPSVTLFPPSSEELQANKATLVCLISDFYPGAVTVAWKADSSPVKAGVETTTPSKQSNSKYAASSYLSLTPEQWKSHRSYSCQVTHEGSTVEKTVALTECS", "notes": "Heavy chain assembled from the VH entry and the constant region entry named tmtIgG1; also called lead N4; N4 clone, tmtIgG1 isotype"}, "B2": {"name": "N4 with wtIgG2 isotype (antibody)", "heavy": "QVQLVQSGAEVKKSGSSVKVSCKASGGTFSSYAISWVRQAPGQGLEWMGGIIPIFGTANYAQKFQGRVTITADESTSIAYMELSSLRSEDTAVYYCASDGAVAAYDAFDIWGQGTMVTVSSASTKGPSVFPLAPCSRSTSESTAALGCLVKDYFPEPVTVSWNSGALTSGVHTFPAVLQSSGLYSLSSVVTVPSSNFGTQTYTCNVDHKPSNTKVDKTVERKCCVECPPCPAPPVAGPSVFLFPPKPKDTLMISRTPEVTCVVVDVSHEDPEVQFNWYVDGVEVHNAKTKPREEQFNSTFRVVSVLTVVHQDWLNGKEYKCKVSNKGLPAPIEKTISKTKGQPREPQVYTLPPSREEMTKNQVSLTCLVKGFYPSDIAVEWESNGQPENNYKTTPPMLDSDGSFFLYSKLTVDKSRWQQGNVFSCSVMHEALHNHYTQKSLSLSPGK", "light": "B1 light", "notes": "also called N4-wtIgG2; N4 clone, wtIgG2 isotype"}, "B3": {"name": "N4 with mtIgG2 isotype (antibody)", "heavy": "B2 heavy with C223S", "light": "B1 light", "notes": "also called N4-mtIgG2; N4 clone, mtIgG2 isotype"}, "B4": {"name": "N2-tmtIgG1 (antibody)", "heavy": "QVQLQQWGAGLLKPSETLSLTCAVYGGSFSGYYWSWIRQPPGKGLEWIGEINHSGSTNYNPSLKSRVTISVDTSKNQFSLKLSSVTAADTAVYYCARGRYDFWSGYYAYFDYWGQGTLVTVSSASTKGPSVFPLAPSSSTSGGTAALGCLVKDYFPEPVTVSWNSGALTSGVHTFPAVLQSSGLYSLSSVVTVPSSSLGTQTYICNVNHKPSNTKVDKRVEPKSCDKTHTCPPCPAPEFEGGPSVFLFPPKPKDTLMISRTPEVTCVVVDVSHEDPEVKFNWYVDGVEVHNAKTKPREEQYNSTYRVVSVLTVLHQDWLNGKEYKCKVSNKALPASIEKTISKAKGQPREPQVYTLPPSREEMTKNQVSLTCLVKGFYPSDIAVEWESNGQPENNYKTTPPVLDSDGSFFLYSKLTVDKSRWQQGNVFSCSVMHEALHNHYTQKSLSLSPGK", "light": "LNFMLTQPHSVSESPGKTVTISCTCSGGRIANNYVQWYQQRPGTSPTTVIYEDNLRPSGVPDRFSGSIDRASNSASLTISDLRTEDEAHYYCQSYDSNDGVAFGGGTKLTVLGQPKAAPSVTLFPPSSEELQANKATLVCLISDFYPGAVTVAWKADSSPVKAGVETTTPSKQSNNKYAASSYLSLTPEQWKSHRSYSCQVTHGGSTVEKTVALTECS", "notes": "Heavy chain assembled from the VH entry and the constant region entry named tmtIgG1; also called lead N2; N2 clone, tmtIgG1 isotype"}, "B5": {"name": "N2-wtIgG2 (antibody)", "heavy": "QVQLQQWGAGLLKPSETLSLTCAVYGGSFSGYYWSWIRQPPGKGLEWIGEINHSGSTNYNPSLKSRVTISVDTSKNQFSLKLSSVTAADTAVYYCARGRYDFWSGYYAYFDYWGQGTLVTVSSASTKGPSVFPLAPCSRSTSESTAALGCLVKDYFPEPVTVSWNSGALTSGVHTFPAVLQSSGLYSLSSVVTVPSSNFGTQTYTCNVDHKPSNTKVDKTVERKCCVECPPCPAPPVAGPSVFLFPPKPKDTLMISRTPEVTCVVVDVSHEDPEVQFNWYVDGVEVHNAKTKPREEQFNSTFRVVSVLTVVHQDWLNGKEYKCKVSNKGLPAPIEKTISKTKGQPREPQVYTLPPSREEMTKNQVSLTCLVKGFYPSDIAVEWESNGQPENNYKTTPPMLDSDGSFFLYSKLTVDKSRWQQGNVFSCSVMHEALHNHYTQKSLSLSPGK", "light": "B4 light", "notes": "also called N2 clone, wtIgG2 isotype"}, "B6": {"name": "N2-mtIgG2 (antibody)", "heavy": "B5 heavy with C225S", "light": "B4 light", "notes": "also called N2 clone, mtIgG2 isotype; C219S mutant IgG2"}, "B7": {"name": "N4#6-3-P (antibody, human IgG2, lambda, V domains shown)", "VH": "QVQLVQSGAEVKKSGSSVKVSCKASGGTFSSYAISWVRQAPGQGLEWMGGIIPIFGTANYAQKFQGRVTITADESTSIAYMELSSLRSEDTAVYYCASDGAVAAYDAFLIWGQGTMVTVSS", "VL": "QAVLTQPSSVSGAPGQRVTISCTGTSSNIGLGYDIHWYQQLPGTAPKLLMYRFDRRPSGVPDRFSGSKSGTSASLTITGLQVEDEADYYCQSYDSGQRGWVFGGGTKLTVLG", "notes": "Full-length human IgG2 antibody; also called antibody variant N4#6-3-P; N4 top variant"}, "B8": {"name": "N4#6-4-P (antibody, human IgG2, lambda, V domains shown)", "VH": "B7 VH with G50M", "VL": "B7 VL with L31A, Y33F, D54S", "notes": "Full-length human IgG2 antibody; also called antibody variant N4#6-4-P; N4 top variant"}, "B9": {"name": "N1#9-PH (antibody, human IgG2, lambda, V domains shown)", "VH": "EVQLVESGGGLVQPGRSLRLSCAASGFTFDDYAMHWVRLAPGKGLEWVSGISWNSGSIGYADSVRGRFTISRDNAKNSLYLQMNSLRAEDTALYYCAKDMGWSLLKTNYYGMDVWGQGTTVTVSS", "VL": "not shown", "notes": "Full-length human IgG2 antibody; also called antibody variant N1#9-PH; N1 top variant"}},
  "note": "Changes are numbered by the printed parent chain. Names may count otherwise.",
  "data": [
    {"target": "T1, human CD73 on CD73-expressing human tumor cells (MDA-MB-231, NCI-H292) (human, UniProt P21589 27-549)", "T1 construct": "whole, on cells; The cell line of each result is named under assay or readout; also called cell surface CD73; surface CD73", "T1 sequence (looked up)": "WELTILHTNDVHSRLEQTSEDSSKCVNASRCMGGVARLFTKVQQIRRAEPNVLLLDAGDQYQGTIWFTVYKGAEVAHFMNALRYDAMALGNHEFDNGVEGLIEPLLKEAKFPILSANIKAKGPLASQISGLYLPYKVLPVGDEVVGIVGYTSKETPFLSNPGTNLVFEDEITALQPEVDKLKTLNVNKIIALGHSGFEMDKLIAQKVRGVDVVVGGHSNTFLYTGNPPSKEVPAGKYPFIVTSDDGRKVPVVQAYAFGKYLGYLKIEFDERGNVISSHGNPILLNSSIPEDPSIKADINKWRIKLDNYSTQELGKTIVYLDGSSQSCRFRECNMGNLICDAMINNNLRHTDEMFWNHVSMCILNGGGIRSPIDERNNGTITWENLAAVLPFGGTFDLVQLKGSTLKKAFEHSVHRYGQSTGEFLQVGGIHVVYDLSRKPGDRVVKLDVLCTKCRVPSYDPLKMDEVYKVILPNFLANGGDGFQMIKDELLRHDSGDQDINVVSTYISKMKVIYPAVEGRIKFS", "assay": "flow cytometry on MDA-MB-231 cells, biotin-labeled antibody, streptavidin-FITC (FIG. 5C)", "method": "(§1) The binding of anti-CD73 antibodies to cell surface CD73 were tested by incubating the MDA-MB-231 cells with the serially diluted biotin-labeled anti-CD73 antibodies in FACS buffer (PBS with 2% FBS) at 4° C. for 30 minutes. The cells were washed with FACS buffer and the binding was detected with streptavidin-FITC at 4° C. for 30 minutes. Flow cytometric analyses were performed using the Cytomics FC500 (Beckman Coulter Inc.).\n(§2) The variable sequences of N1, N2 and N4 were cloned into human wild-type or C219S mutant IgG2 Fc backbone. Different IgG isotypes of N1 (FIG. 5A), N2 (FIG. 5B), N4 (FIG. 5C) were tested the binding to CD73-expressing human MDA-MB-231 cells by flow cytometry. Anti-CD73 ref-1 antibody and HLX01 (anti-CD20) were used as the positive and negative control respectively.", "values": [
      {"binder": "B1", "binding result": "binds"},
      {"binder": "B2", "binding result": "binds"},
      {"binder": "B3", "binding result": "binds"}
    ]},
    {"target": "T1, human CD73 on CD73-expressing human …", "assay": "flow cytometry on MDA-MB-231 cells, biotin-labeled antibody, streptavidin-FITC (FIG. 5B)", "method": "as §1, §2", "values": [
      {"binder": "B4", "binding result": "binds"},
      {"binder": "B5", "binding result": "binds"},
      {"binder": "B6", "binding result": "binds"}
    ]},
    {"target": "T1, human CD73 on CD73-expressing human …", "assay": "flow cytometry on MDA-MB-231 cells (FIG. 16B)", "method": "Whole cell binding ability of anti-CD73 antibodies were tested by incubating the MDA-MB-231 or NCI-H292 cells with the serial-diluted antibodies in FACS buffer (PBS with 2% FBS) at 4° C. for 30 minutes. Cells were washed with FACS buffer and the binding was detected with FITC-labeled goat anti-human IgG (H+L) antibodies (or PE-labeled goat anti-human IgG Fcγ) at 4° C. for another 30 minutes. The binding of antibodies to cell surface was measured by the mean fluorescent intensity (MFI) of staining. Flow cytometric analyses were performed using the Cytomics FC500 or CytoFLEX flow cytometry (Beckman Coulter Inc.). FIGS. 2B and 2C show selected anti-CD73 antibodies binding to CD73-expressing human tumor cells MDA-MB-231 (human breast adenocarcinoma) cells (FIG. 2B), and NCI-H292 (human mucoepidermoid pulmonary carcinoma) cells (FIG. 2C).\nFIGS. 16A-16C show CD73 binding ability of N1 and N4 top variants. Anti-CD73 antibodies were tested the binding to recombinant human CD73 proteins by ELISA (FIG. 16A) and CD73-expressing human tumor cells, MDA-MB-231 (FIG. 16B) and NCI-H292 (FIG. 16C), by flow cytometry. Anti-CD73 ref-1 and anti-CD73 ref-2 antibodies were used as the positive controls, while HLX01 (anti-CD20) was used as the negative control. […] The binding of N1#9-PH to CD73-expressing NCI-H292 cells is slightly better than that of N4#6-3-P and N4#6-4-P.", "values": [
      {"binder": "B7", "binding result": "binds"},
      {"binder": "B8", "binding result": "binds"},
      {"binder": "B9", "binding result": "binds"}
    ]},
    {"target": "T2, mouse CD73 on mouse mammary carcinoma 4T1 cells (mouse, UniProt Q61503 29-551)", "T2 construct": "whole, on cells", "T2 sequence (looked up)": "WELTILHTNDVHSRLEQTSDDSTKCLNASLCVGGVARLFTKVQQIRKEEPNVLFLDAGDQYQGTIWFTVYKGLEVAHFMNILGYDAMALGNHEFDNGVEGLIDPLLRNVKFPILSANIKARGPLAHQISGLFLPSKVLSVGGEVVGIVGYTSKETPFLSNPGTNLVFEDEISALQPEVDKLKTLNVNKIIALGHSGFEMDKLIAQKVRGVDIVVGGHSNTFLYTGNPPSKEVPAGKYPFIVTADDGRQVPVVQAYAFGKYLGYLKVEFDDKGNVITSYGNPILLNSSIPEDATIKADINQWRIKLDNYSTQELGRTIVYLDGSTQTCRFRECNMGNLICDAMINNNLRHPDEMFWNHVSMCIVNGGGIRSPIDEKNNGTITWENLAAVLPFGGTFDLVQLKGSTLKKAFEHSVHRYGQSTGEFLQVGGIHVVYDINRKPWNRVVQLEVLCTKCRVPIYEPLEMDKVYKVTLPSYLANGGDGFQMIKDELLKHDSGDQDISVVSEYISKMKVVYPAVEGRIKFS", "assay": "flow cytometry on 4T1 cells, FITC anti-human IgG (FIG. 24A)", "method": "Binding of anti-CD73 antibodies was assessed by incubating the 4T1 or LLC-MK2 cells (1E5 cells/test) with the serially diluted antibodies in FACS buffer (PBS with 2% FBS) at 4° C. for 30 minutes. The cells were washed with FACS buffer and the binding was detected with FITC-labeled goat anti-human IgG (H+L) antibodies at 4° C. for another 30 minutes. The binding of antibodies to cell surface was measured by the mean fluorescent intensity (MFI) of staining. Flow cytometric analyses were performed using the Cytomics FC500 or CytoFLEX flow cytometry (Beckman Coulter Inc.).\nFIGS. 24A and 24B illustrate cross-binding of N1 and N4 top variants to mouse and monkey CD73-expressing cells. Anti-CD73 antibodies were tested for the binding to CD73-expressing mouse mammary carcinoma 4T1 cells (FIG. 24A) and monkey kidney epithelial LLC-MK2 cells (FIG. 24B) by flow cytometry. HLX01 was used as the negative control. […] N1 and N4 top variants cannot cross-bind to mouse CD73.", "values": [
      {"binder": "B7", "binding result": "no binding"},
      {"binder": "B8", "binding result": "no binding"},
      {"binder": "B9", "binding result": "no binding"}
    ]}
  ]
}
